Laboratory results published in PMC7203678.

Target: T1, C-reactive protein human, recombinant (human), P02741
T1 chain: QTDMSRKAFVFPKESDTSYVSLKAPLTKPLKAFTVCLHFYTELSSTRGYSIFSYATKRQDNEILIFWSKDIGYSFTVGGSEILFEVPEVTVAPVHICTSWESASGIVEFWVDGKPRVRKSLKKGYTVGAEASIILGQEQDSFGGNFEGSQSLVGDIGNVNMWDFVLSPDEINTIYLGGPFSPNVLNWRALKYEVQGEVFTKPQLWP
Experiment: native MS
Conditions: remark: other sources report otherwise

- stoichiometry N: 5
B1: C-reactive protein human, recombinant, P02741 19-224 (natural protein)
chain: T1 chain
